According to patent publication US20190225705A1 (published 2019):
Substitutions are numbered along the chain they refer to. Each block holds one binder with its values, some of them ahead of it.

Experiments:
[1] = target: T1, human coagulation factor XI (UniProt P03951 19-625); test: ELISA
[2] = target: T1, human coagulation factor XI; test: ELISA; remark: listed apart in the source
[3] = target: T1, human coagulation factor XI; test: Conversion Assay
[4] = target: T1, human coagulation factor XI; test: FXIIa induced FXI conversion assay
baboon FXI = baboon FXI (Papio anubis (baboon)); test: ELISA
[5] = target: T1, human coagulation factor XI; test: ELISA; remark: listed apart in the source
[6] = target: T1, human coagulation factor XI; test: ELISA; remark: listed apart in the source
[7] = target: T1, human coagulation factor XI; test: ELISA; remark: listed apart in the source
[8] = target: T1, human coagulation factor XI; test: ELISA; remark: listed apart in the source

B2: TPP-3290 (antibody, V domains shown)
VH: EVTLRESGPALVKPTQTLTLTCTFSGFSLSTSGMGVSWIRQPPGKALEWLAHIDWDDDKYYSTSLKSRLTISKDTSKNQVVLTMTNMDPVDTATYYCARIRSSVYAHYYGMDYWGQGTTVTVSS
VL: DIVMTQSPDSLAVSLGERATISCKASQSVLYSGDNYLNWYQQKPGQPPKLLIYAASTLESGIPDRFSGSGSGTDFTLTISSLQAEDVAVYYCQQYNGTPWTFGGGTKVEIKR
EC50 (baboon FXI): 0.14 nM

B3: TPP-3577 (antibody, V domains shown)
VH: B2 VH with G35C, S37G, Y113V
VL: B2 VL with A25S, T98D
EC50 (baboon FXI): 0.16 nM

B5: TPP-3238 (antibody, V domains shown)
VH: B2 VH with A106Y, H107Y, Y113V
VL: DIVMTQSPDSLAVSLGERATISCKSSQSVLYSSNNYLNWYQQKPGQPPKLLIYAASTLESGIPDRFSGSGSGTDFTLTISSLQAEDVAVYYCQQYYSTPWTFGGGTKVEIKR
EC50 (baboon FXI): 0.28 nM

B9: 1A6 (antibody, V domains shown)
VH: QVTLKESGPGILKPSQTLSLTCSFSGFSLSTSGMGVGWIRQPSGKGLEWLAHIWWDDDKYYNPSLKSQLTISKDTSRNQVFLKITSVDAADTATYYCARKRSSVVAHYYAMDYWGQGTSVTVSS
VL: DIVLTQSPASLAVSLGQRATISCKASQSVDYDGDSYLNWYQQKPGQPPKLLIYAASNLESGIPARFSGSGSGTDFTLNIHPVEEEDAATYYCQQSNGDPWTFGGGTKLEIK
EC50 (baboon FXI): 0.16 nM

Further lines, results first:

EC50 [1]: 0.2 nM | EC50 [2]: 0.219 nM | EC50 [3]: 0.6 nM | IC50 [4]: 0.598 nM
B1: humanized and germlined anti-FXI antibody TPP-3583 (antibody, V domains shown)
VH: B2 VH with S37G, T63P
VL: B2 VL with T98D

EC50 (baboon FXI): 0.13 nM
B4: TPP-3583 (antibody, V domains shown)
VH: B2 VH with S37G, T63P
VL: B2 VL with T98D

EC50 [1]: 0.16 nM | EC50 [5]: 0.165 nM | EC50 [3]: 0.6 nM
B6: humanized and germlined anti-FXI antibody TPP-3238 (antibody, V domains shown)
VH: B2 VH with A106Y, H107Y, Y113V
VL: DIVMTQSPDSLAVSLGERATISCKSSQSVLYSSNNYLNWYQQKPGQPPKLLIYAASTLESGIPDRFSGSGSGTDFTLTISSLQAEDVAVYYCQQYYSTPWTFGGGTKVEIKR

EC50 [1]: 0.19 nM | EC50 [6]: 0.119 nM | EC50 [3]: 0.4 nM
B7: humanized and germlined anti-FXI antibody TPP-3577 (antibody, V domains shown)
VH: B2 VH with G35C, S37G, Y113V
VL: B2 VL with A25S, T98D

EC50 [1]: 0.17 nM | EC50 [7]: 0.168 nM | EC50 [3]: 0.4 nM
B8: humanized and germlined anti-FXI antibody TPP-3290 (antibody, V domains shown)
VH: B2 VH
VL: B2 VL

EC50 [1]: 0.15 nM | EC50 [8]: 0.154 nM | EC50 [3]: 0.5 nM
B10: murine anti-FXI antibody 1A6 (antibody, V domains shown)
VH: B9 VH
VL: B9 VL
